This note sets out measurements from patent US20230340058A1.

The labels stand for the following.
B1: SEQ ID NO: 212 (Fc fusion)
chain: DKTHTCPPCPAPEAAGGPSVFLFPPKPKDTLMISRTPEVTCVVVDVSHEDPEVKFNWYVDGVEVHNAKTKPREEQYNSTYRVVSVLTVLHQDWLNGKEYKCKVSNKALAAPIEKTISKAKGQPREPQVYTLPPSRDELTKNQVSLTCLVKGFYPSDIAVEWESNGQPENNYKTTPPVLDSDGSFFLYSKLTVDKSRWQQGNVFSCSVLHEALHSHYTQKSLSLSPGKGGSDSWKEEVIKLCGRELVRAQIAICGKSTASDAAGANANAGARQLYSALANKCCHVGCTKRSLAQFC
B2: SEQ ID NO: 213 (Fc fusion)
chain: DKTHTCPPCPAPEAAGGPSVFLFPPKPKDTLMISRTPEVTCVVVDVSHEDPEVKFNWYVDGVEVHNAKTKPREEQYNSTYRVVSVLTVLHQDWLNGKEYKCKVSNKALAAPIEKTISKAKGQPREPQVYTLPPSRDELTKNQVSLTCLVKGFYPSDIAVEWESNGQPENNYKTTPPVLDSDGSFFLYSKLTVDKSRWQQGNVFSCSVLHEALHSHYTQKSLSLSPGKGGSDSWKEEVIKLCGRELVRAQIAICGKSTASDAAGANANAGARQLYSALANKCCHVGCTKRSLAEFC
B3: SEQ ID NO: 74 (Fc fusion)
chain: DKTHTCPPCPAPEAAGGPSVFLFPPKPKDTLMISRTPEVTCVVVDVSHEDPEVKFNWYVDGVEVHNAKTKPREEQYNSTYRVVSVLTVLHQDWLNGKEYKCKVSNKALAAPIEKTISKAKGQPREPQVYTLPPSRDELTKNQVSLTCLVKGFYPSDIAVEWESNGQPENNYKTTPPVLDSDGSFFLYSKLTVDKSRWQQGNVFSCSVLHEALHSHYTQKSLSLSPGKGGSDSWQEEVIKLCGRELVRAQIAICGKSTGGGEEGGGEEGGGRQLYSALANKCCHVGCTKRSLAQFC
B4: SEQ ID NO: 210 (Fc fusion)
chain: DKTHTCPPCPAPEAAGGPSVFLFPPKPKDTLMISRTPEVTCVVVDVSHEDPEVKFNWYVDGVEVHNAKTKPREEQYNSTYRVVSVLTVLHQDWLNGKEYKCKVSNKALAAPIEKTISKAKGQPREPQVYTLPPSRDELTKNQVSLTCLVKGFYPSDIAVEWESNGQPENNYKTTPPVLDSDGSFFLYSKLTVDKSRWQQGNVFSCSVLHEALHSHYTQKSLSLSPGGGSDSWMEEVIKLCGRELVRAQIAICGKSTGGEGGGEEGGGEGGQLYSALANKCCHVGCTKRSLARFC
B5: SEQ ID NO: 70 (Fc fusion)
chain: DKTHTCPPCPAPEAAGGPSVFLFPPKPKDTLMISRTPEVTCVVVDVSHEDPEVKFNWYVDGVEVHNAKTKPREEQYNSTYRVVSVLTVLHQDWLNGKEYKCKVSNKALAAPIEKTISKAKGQPREPQVYTLPPSRDELTKNQVSLTCLVKGFYPSDIAVEWESNGQPENNYKTTPPVLDSDGSFFLYSKLTVDKSRWQQGNVFSCSVLHEALHSHYTQKSLSLSPGGGSDSWQEEVIKLCGRELVRAQIAICGKSTGGGEGGGEGGGEGRQLYSALANKCCHVGCTKRSLAQFC
B6: SEQ ID NO: 211 (Fc fusion)
chain: DKTHTCPPCPAPEAAGGPSVFLFPPKPKDTLMISRTPEVTCVVVDVSHEDPEVKFNWYVDGVEVHNAKTKPREEQYNSTYRVVSVLTVLHQDWLNGKEYKCKVSNKALAAPIEKTISKAKGQPREPQVYTLPPSRDELTKNQVSLTCLVKGFYPSDIAVEWESNGQPENNYKTTPPVLDSDGSFFLYSKLTVDKSRWQQGNVFSCSVLHEALHSHYTQKSLSLSPGGGSDSWQEEVIKLCGRELVRAQIAICGKSTGGEGGGEEGGGEGGQLYSALANKCCHVGCTKRSLARFC
B7: SEQ ID NO: 68 (Fc fusion)
chain: DKTHTCPPCPAPEAAGGPSVFLFPPKPKDTLMISRTPEVTCVVVDVSHEDPEVKFNWYVDGVEVHNAKTKPREEQYNSTYRVVSVLTVLHQDWLNGKEYKCKVSNKALAAPIEKTISKAKGQPREPQVYTLPPSRDELTKNQVSLTCLVKGFYPSDIAVEWESNGQPENNYKTTPPVLDSDGSFFLYSKLTVDKSRWQQGNVFSCSVLHEALHSHYTQKSLSLSPGGGSDSWQEEVIKLCGRELVRAQIAICGKSTGGGEGGGEGGGEGRQLYSALANKCCHVGCTKRSLARFC
B8: SEQ ID NO: 208 (Fc fusion)
chain: DKTHTCPPCPAPEAAGGPSVFLFPPKPKDTLMISRTPEVTCVVVDVSHEDPEVKFNWYVDGVEVHNAKTKPREEQYNSTYRVVSVLTVLHQDWLNGKEYKCKVSNKALAAPIEKTISKAKGQPREPQVYTLPPSRDELTKNQVSLTCLVKGFYPSDIAVEWESNGQPENNYKTTPPVLDSDGSFFLYSKLTVDKSRWQQGNVFSCSVLHEALHSHYTQKSLSLSPGKGGSDSWMEEVIKLCGRELVRAQIAICGKSTGGEGGGEEGGGEGGQLYSALANKCCHVGCTKRSLARFC
B9: SEQ ID NO: 209 (Fc fusion)
chain: DKTHTCPPCPAPEAAGGPSVFLFPPKPKDTLMISRTPEVTCVVVDVSHEDPEVKFNWYVDGVEVHNAKTKPREEQYNSTYRVVSVLTVLHQDWLNGKEYKCKVSNKALAAPIEKTISKAKGQPREPQVYTLPPSRDELTKNQVSLTCLVKGFYPSDIAVEWESNGQPENNYKTTPPVLDSDGSFFLYSKLTVDKSRWQQGNVFSCSVLHEALHSHYTQKSLSLSPGKGGSDSWQEEVIKLCGRELVRAQIAICGKSTGGEGGGEEGGGEGGQLYSALANKCCHVGCTKRSLARFC
B10: SEQ ID NO: 66 (Fc fusion)
chain: DKTHTCPPCPAPEAAGGPSVFLFPPKPKDTLMISRTPEVTCVVVDVSHEDPEVKFNWYVDGVEVHNAKTKPREEQYNSTYRVVSVLTVLHQDWLNGKEYKCKVSNKALAAPIEKTISKAKGQPREPQVYTLPPSRDELTKNQVSLTCLVKGFYPSDIAVEWESNGQPENNYKTTPPVLDSDGSFFLYSKLTVDKSRWQQGNVFSCSVLHEALHSHYTQKSLSLSPGKGGSDSWQEEVIKLCGRELVRAQIAICGKSTGGGEGGGEGGGEGRQLYSALANKCCHVGCTKRSLAQFC
B11: SEQ ID NO: 72 (Fc fusion)
chain: DKTHTCPPCPAPEAAGGPSVFLFPPKPKDTLMISRTPEVTCVVVDVSHEDPEVKFNWYVDGVEVHNAKTKPREEQYNSTYRVVSVLTVLHQDWLNGKEYKCKVSNKALAAPIEKTISKAKGQPREPQVYTLPPSRDELTKNQVSLTCLVKGFYPSDIAVEWESNGQPENNYKTTPPVLDSDGSFFLYSKLTVDKSRWQQGNVFSCSVLHEALHSHYTQKSLSLSPGKGGSDSWQEEVIKLCGRELVRAQIAICGKSTGGGEEGGGEEGGGRQLYSALANKCCHVGCTKRSLARFC
B12: SEQ ID NO: 78 (Fc fusion)
chain: DKTHTCPPCPAPEAAGGPSVFLFPPKPKDTLMISRTPEVTCVVVDVSHEDPEVKFNWYVDGVEVHNAKTKPREEQYNSTYRVVSVLTVLHQDWLNGKEYKCKVSNKALAAPIEKTISKAKGQPREPQVYTLPPSRDELTKNQVSLTCLVKGFYPSDIAVEWESNGQPENNYKTTPPVLDSDGSFFLYSKLTVDKSRWQQGNVFSCSVLHEALHSHYTQKSLSLSPGGGSDSWQEEVIKLCGRELVRAQIAICGKSTGGGEEGGGEEGGGRQLYSALANKCCHVGCTKRSLAQFC

Chain of human RXFP1, full-length (human), Q9HBX9 (Q9HBX9 whole entry): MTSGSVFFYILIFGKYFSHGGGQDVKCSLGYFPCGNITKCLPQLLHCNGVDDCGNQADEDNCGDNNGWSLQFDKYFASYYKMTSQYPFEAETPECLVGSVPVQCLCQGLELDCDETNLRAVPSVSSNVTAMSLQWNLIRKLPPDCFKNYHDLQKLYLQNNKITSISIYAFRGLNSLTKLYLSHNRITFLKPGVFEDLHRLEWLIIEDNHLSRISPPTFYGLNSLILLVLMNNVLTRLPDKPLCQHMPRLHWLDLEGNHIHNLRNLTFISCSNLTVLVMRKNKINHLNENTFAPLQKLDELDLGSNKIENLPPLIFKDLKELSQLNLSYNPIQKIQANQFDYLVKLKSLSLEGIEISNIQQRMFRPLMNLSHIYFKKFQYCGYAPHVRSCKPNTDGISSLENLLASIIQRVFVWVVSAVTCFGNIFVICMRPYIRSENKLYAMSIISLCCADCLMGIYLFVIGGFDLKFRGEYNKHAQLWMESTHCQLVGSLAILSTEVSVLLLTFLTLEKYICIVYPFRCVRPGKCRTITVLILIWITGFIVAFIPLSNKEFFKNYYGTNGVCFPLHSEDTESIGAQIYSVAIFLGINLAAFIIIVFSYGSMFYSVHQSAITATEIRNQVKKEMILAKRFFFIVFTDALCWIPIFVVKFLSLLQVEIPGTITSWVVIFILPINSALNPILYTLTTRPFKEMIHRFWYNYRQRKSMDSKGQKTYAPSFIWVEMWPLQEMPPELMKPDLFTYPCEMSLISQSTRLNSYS

The assay addresses human RXFP1, full-length (human), Q9HBX9. Description: cell-based or functional assay.
For B1, the Potency Assay EC50 (nM), transient hRXFP1 cAMP assay was 0.5 nM.

Take B2: the Potency Assay EC50 (nM), transient hRXFP1 cAMP assay stood at 1.8 nM. Next, B3: 10.2 nM; B4: 140 nM; B5: 8 nM. The value for B6 was 101 nM; that for B7 was 3.3 nM; that for B8 was 60.3 nM.

Turning to B9, the Potency Assay EC50 (nM), transient hRXFP1 cAMP assay stood at 62.8 nM. Turning to B10, the Potency Assay EC50 (nM), transient hRXFP1 cAMP assay was 4.2 nM. For the molecule B11, the Potency Assay EC50 (nM), transient hRXFP1 cAMP assay stood at 5.8 nM. B12 displayed a Potency Assay EC50 (nM), transient hRXFP1 cAMP assay of 23.4 nM.
